The test has as its target α2bβ3 receptor (mouse (endogenous, tumor-bearing …, UniProt Q9QUM0 32-1033; O54890 26-787). The test can be described thus: cell-based or functional assay.

Sequence of α2bβ3 receptor (mouse (Q9QUM0 32-1033, chain 1 of 2): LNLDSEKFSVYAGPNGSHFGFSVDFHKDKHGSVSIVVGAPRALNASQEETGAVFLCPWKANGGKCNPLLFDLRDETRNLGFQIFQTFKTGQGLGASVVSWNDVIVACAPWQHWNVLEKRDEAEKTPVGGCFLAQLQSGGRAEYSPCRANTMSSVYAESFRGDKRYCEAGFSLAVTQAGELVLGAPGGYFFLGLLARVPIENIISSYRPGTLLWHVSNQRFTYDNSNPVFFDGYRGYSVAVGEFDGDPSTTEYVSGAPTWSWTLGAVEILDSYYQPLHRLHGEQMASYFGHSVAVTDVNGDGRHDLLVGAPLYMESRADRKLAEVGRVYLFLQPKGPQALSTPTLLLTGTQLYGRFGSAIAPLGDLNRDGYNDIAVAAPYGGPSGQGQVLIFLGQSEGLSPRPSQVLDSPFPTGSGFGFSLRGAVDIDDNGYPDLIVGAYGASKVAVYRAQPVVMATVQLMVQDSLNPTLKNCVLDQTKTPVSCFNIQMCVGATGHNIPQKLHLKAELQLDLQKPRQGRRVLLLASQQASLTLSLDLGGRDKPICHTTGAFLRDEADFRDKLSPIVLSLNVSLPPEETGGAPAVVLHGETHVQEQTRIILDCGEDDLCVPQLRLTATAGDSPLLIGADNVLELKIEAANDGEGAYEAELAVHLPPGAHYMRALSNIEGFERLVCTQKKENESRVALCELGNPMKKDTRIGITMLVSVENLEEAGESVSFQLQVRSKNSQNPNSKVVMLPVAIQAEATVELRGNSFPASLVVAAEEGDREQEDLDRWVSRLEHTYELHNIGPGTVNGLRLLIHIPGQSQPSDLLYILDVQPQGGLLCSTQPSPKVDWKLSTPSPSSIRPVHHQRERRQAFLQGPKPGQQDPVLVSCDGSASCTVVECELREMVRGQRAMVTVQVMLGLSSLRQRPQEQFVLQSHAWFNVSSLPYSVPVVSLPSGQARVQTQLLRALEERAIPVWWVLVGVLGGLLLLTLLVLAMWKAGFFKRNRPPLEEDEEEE
Sequence of α2bβ3 receptor (mouse (O54890 26-787, chain 2 of 2): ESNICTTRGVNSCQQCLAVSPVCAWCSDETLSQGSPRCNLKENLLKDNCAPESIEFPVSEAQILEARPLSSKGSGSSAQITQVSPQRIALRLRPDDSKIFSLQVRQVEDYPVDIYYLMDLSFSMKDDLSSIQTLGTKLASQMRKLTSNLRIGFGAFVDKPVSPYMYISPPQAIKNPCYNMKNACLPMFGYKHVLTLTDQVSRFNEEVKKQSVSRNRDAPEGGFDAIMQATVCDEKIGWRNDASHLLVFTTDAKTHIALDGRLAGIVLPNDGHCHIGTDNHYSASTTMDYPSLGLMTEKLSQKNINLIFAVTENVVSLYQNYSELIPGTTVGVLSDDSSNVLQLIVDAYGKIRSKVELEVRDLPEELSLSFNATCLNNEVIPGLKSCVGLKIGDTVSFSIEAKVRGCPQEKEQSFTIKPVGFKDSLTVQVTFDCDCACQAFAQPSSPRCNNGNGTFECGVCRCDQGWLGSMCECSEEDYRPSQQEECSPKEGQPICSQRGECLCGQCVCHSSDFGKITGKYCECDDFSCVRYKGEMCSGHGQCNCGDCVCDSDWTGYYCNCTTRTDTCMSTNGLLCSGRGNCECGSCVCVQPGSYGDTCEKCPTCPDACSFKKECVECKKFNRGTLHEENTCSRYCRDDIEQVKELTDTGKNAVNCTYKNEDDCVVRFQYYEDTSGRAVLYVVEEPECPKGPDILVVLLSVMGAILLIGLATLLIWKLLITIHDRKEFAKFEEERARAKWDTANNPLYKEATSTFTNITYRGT

B1: Phage encoding SLRGDGSSV (SEQ ID NO: 2) on the capsid protein (peptide)
peptide: MASMTGGQQMGTNQGKGVVAAGDKLALFLKVFGGEVLTAFARTSVTTSRHMVRSISSGKSAQFPVLGRTQAAYLAPGENLDDKRKDIKHTEKVITIDGLLTADVLIYDIEDAMNHYDVRSEYTSQLGESLAMAADGAVLAEIAGLCNVESKYNENIEGLGTATVIETTQNKAALTDQVALGKEIIAALTKARAALTKNYVPAADRVFYCDPDSYSAILAALMPNAANYAALIDPEKGSIRNVMGFEVVEVPHLTAGGAGTAREGTTGQKHVFPANKGEGNVKVAKDNVIGLFMHRSAVGTVKLRDLALERARRANFQADQIIAKYAMGHGGLRPEAAGAVVFQSGVMLNSLRGDGSSV
For the molecule B1, the “phage binding in tumor (phage recovered, quantified by plaque formation)” value is 4 fold.
